# Values joined by “and” are separate entries in the source; they are usually repeats but may differ in a detail not shown here. Identical values can stand only once.
# Experiments:
# [1] = biological target: HIV-1IIIB gp120/gp41 stably expressed on CHO cells (HIV-1 IIIB); assay: cell-based or functional assay
# [2] = biological target: recombinant HIV-1 gp120 from the laboratory-adapted strain HIV-1LAI (HIV-1 LAI) (UniProt P03377); assay: modified ELISA, gp120 captured on plate, 50% maximal binding
# [3] = biological target: recombinant HIV-1 gp120 from the primary isolate HIV-1JR-FL (HIV-1 JR-FL) (UniProt P20871); assay: as above
substance,measurement,setting,value
CD4-IgG2 chimeric heterotetramer (Fc fusion),IC50 of syncytium inhibition (CHO cells expressing HIV-1IIIB gp120/gp41 with C8166 cells),[1],9 nM and 1.81 µg/ml
same,"Relative Potency (mass), relative to sCD4, syncytium inhibition",[1],5.1 fold
same,"Relative Potency (molarity), relative to sCD4, syncytium inhibition",[1],22.2 fold
same,EC50,[2],1.25 nM
same,EC50,[3],0.64 nM
